Measured values reported in article PMC5380960.

Biological target: LH2-G1 (wild-type LH2 with the N-terminal fragment of Gaussia luciferase fused to its C-terminus) (UniProt O00469)
Assay: split reporter (BiFC, NanoBiT); Gaussia luciferase protein-fragment complementation; LH2-G1 and FKBP65-G2 plasmids co-transfected 1:1 into 293F cells, 48 h, passive lysis buffer, luciferase activity of total cell lysates with 20 μM native coelenterazine

Chain of UniProt O00469 (O00469 26-737): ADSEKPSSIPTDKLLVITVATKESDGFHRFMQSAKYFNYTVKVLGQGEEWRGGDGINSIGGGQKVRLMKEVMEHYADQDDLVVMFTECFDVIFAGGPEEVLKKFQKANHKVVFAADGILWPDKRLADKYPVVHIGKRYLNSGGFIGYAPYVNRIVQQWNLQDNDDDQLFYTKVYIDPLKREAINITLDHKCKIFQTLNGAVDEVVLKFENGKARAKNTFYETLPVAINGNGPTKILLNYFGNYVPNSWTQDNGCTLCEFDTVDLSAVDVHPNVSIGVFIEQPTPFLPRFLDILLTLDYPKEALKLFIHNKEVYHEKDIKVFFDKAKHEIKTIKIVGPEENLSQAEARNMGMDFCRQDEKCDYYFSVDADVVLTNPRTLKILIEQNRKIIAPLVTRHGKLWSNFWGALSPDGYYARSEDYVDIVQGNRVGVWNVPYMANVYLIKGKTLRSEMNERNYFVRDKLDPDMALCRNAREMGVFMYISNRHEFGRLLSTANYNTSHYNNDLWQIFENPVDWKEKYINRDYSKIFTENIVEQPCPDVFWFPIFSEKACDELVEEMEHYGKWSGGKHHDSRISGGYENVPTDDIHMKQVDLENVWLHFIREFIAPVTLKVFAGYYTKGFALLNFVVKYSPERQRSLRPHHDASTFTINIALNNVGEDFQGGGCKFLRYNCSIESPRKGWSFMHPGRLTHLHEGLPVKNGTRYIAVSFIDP

FKBP65-G2 (FKBP65 with the C-terminal fragment of Gaussia luciferase fused to its C-terminus) (from UniProt Q96AY3 27-582) (enzyme)
fold luciferase activity of co-transfected cells over either vector alone: 800 fold
